B1: Splicing factor 45 (Homo sapiens), Q96I25 (parent)
chain: MSLYDDLGVETSDSKTEGWSKNFKLLQSQLQVKKAALTQAKSQRTKQSTVLAPVIDLKRGGSSDDRQIVDTPPHVAAGLKDPVPSGFSAGEVLIPLADEYDPMFPNDYEKVVKRQREERQRQRELERQKEIEEREKRRKDRHEASGFARRPDPDSDEDEDYERERRKRSMGGAAIAPPTSLVEKDKELPRDFPYEEDSRPRSQSSKAAIPPPVYEEQDRPRSPTGPSNSFLANMGGTVAHKIMQKYGFREGQGLGKHEQGLSTALSVEKTSKRGGKIIVGDATEKDASKKSDSNPLTEILKCPTKVVLLRNMVGAGEVDEDLEVETKEECEKYGKVGKCVIFEIPGAPDDEAVRIFLEFERVESAIKAVVDLNGRYFGGRVVKACFYNLDKFRVLDLAEQV
partner: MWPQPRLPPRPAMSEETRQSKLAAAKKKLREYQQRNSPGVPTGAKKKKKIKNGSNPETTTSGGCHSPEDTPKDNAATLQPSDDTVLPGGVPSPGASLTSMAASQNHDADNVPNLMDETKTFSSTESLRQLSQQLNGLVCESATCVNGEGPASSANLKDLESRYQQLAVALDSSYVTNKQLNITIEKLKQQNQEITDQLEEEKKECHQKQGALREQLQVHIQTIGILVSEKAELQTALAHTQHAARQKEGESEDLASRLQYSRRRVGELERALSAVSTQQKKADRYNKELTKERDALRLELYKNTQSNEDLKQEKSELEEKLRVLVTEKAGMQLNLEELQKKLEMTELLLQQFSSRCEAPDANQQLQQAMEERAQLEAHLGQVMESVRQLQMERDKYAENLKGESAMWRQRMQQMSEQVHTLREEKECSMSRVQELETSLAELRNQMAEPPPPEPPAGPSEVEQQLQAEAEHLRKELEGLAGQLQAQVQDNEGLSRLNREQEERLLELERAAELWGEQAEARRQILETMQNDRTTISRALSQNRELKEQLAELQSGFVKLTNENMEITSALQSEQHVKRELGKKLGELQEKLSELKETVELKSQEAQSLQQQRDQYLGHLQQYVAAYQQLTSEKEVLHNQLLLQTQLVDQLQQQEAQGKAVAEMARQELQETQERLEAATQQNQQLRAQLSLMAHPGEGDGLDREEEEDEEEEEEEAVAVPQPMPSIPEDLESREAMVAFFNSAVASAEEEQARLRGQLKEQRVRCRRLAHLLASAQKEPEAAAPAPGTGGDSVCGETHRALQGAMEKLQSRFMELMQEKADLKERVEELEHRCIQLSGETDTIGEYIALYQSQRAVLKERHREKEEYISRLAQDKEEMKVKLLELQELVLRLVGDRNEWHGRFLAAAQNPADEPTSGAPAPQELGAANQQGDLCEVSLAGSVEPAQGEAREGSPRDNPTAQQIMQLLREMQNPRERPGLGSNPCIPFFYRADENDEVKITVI
B2: Mevalonate kinase (Homo sapiens), Q03426 (parent)
chain: MLSEVLLVSAPGKVILHGEHAVVHGKVALAVSLNLRTFLRLQPHSNGKVDLSLPNIGIKRAWDVARLQSLDTSFLEQGDVTTPTSEQVEKLKEVAGLPDDCAVTERLAVLAFLYLYLSICRKQRALPSLDIVVWSELPPGAGLGSSAAYSVCLAAALLTVCEEIPNPLKDGDCVNRWTKEDLELINKWAFQGERMIHGNPSGVDNAVSTWGGALRYHQGKISSLKRSPALQILLTNTKVPRNTRALVAGVRNRLLKFPEIVAPLLTSIDAISLECERVLGEMGEAPAPEQYLVLEELIDMNQHHLNALGVGHASLDQLCQVTRARGLHSKLTGAGGGGCGITLLKPGLEQPEVEATKQALTSCGFDCLETSIGAPGVSIHSATSLDSRVQQALDGL
B3: G protein pathway suppressor 2 (Homo sapiens), Q13227 (parent)
chain: MPALLERPKLSNAMARALHRHIMMERERKRQEEEEVDKMMEQKMKEEQERRKKKEMEERMSLEETKEQILKLEEKLLALQEEKHQLFLQLKKVLHEEEKRRRKEQSDLTTLTSAAYQQSLTVHTGTHLLSMQGSPGGHNRPGTLMAADRAKQMFGPQVLTTRHYVGSAAAFAGTPEHGQFQGSPGGAYGTAQPPPHYGPTQPAYSPSQQLRAPSAFPAVQYLSQPQPQPYAVHGHFQPTQTGFLQPGGALSLQKQMEHANQQTGFSDSSSLRPMHPQALHPAPGLLASPQLPVQMQPAGKSGFAATSQPGPRLPFIQHSQNPRFYHK
partner: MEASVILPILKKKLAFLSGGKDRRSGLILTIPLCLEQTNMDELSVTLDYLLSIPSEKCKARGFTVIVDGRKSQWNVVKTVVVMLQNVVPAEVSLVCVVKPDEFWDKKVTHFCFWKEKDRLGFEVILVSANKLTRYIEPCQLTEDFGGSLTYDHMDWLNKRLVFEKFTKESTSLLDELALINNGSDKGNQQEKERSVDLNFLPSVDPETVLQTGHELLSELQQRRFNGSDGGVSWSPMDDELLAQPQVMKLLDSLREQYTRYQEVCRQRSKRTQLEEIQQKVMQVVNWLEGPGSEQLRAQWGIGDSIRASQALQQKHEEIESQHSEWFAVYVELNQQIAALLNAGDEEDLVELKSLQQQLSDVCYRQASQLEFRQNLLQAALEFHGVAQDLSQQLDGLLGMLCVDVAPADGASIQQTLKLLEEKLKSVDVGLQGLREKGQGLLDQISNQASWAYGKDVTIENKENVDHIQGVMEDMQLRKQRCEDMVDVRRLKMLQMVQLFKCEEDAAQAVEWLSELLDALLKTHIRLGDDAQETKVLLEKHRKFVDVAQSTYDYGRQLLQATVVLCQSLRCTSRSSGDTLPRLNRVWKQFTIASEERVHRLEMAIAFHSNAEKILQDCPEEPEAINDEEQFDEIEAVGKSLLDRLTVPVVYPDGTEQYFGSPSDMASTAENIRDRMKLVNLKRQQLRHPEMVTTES

Variants of: B1
Conditions: with goga2_human GOLGA2, Q08379

| Variant | effect of a mutation on the interaction |
| --- | --- |
| MSLYDDLGVETSDSKTEGWSKNFKLLQSQLQVKKAALTQAKSQRTKQSTVLAPVIDLKRGGSSDDRQIVDTPPHVAAGLKDPVPSGFSAGEVLIPLADEYDPMFPNDYEKVVKRQREERQRQRELERQKEIEEREKRRKDRHEASGFARRPDPDSDEDEDYERERRKRSMGGAAIAPPTSLVEKDKELPRDFPYEEDSRPRSQSSKAAIPPPVYEEQDRPRSPIGPSNSFLANMGGTVAHKIMQKYGFREGQGLGKHEQGLSTALSVEKTSKRGGKIIVGDATEKDASKKSDSNPLTEILKCPTKVVLLRNMVGAGEVDEDLEVETKEECEKYGKVGKCVIFEIPGAPDDEAVRIFLEFERVESAIKAVVDLNGRYFGGRVVKACFYNLDKFRVLDLAEQV [T224I] | with no effect |

Variants of: B2
Conditions: with ews_human EWSR1, Q01844
ews_human EWSR1, Q01844, sequence (Q01844 whole entry): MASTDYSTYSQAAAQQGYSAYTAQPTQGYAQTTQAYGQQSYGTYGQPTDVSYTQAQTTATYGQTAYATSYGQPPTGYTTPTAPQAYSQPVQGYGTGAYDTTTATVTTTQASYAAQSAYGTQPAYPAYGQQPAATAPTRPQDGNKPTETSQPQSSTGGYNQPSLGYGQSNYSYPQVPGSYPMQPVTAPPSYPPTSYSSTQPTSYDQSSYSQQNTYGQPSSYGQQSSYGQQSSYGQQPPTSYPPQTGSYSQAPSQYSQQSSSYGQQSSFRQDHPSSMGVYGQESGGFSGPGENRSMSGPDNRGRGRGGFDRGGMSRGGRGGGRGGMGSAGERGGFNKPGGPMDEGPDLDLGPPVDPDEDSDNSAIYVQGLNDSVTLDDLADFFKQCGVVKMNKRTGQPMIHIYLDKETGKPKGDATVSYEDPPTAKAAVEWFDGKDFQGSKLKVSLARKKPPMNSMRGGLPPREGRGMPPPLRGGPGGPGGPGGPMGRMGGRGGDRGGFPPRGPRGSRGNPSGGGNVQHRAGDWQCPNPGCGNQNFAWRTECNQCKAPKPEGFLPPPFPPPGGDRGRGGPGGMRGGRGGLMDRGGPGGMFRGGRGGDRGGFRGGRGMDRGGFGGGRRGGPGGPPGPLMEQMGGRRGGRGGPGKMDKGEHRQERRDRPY

| Variant | effect of a mutation on the interaction |
| --- | --- |
| MLSEVLLVSAPGKVILHGEQAVVHGKVALAVSLNLRTFLRLQPHSNGKVDLSLPNIGIKRAWDVARLQSLDTSFLEQGDVTTPTSEQVEKLKEVAGLPDDCAVTERLAVLAFLYLYLSICRKQRALPSLDIVVWSELPPGAGLGSSAAYSVCLAAALLTVCEEIPNPLKDGDCVNRWTKEDLELINKWAFQGERMIHGNPSGVDNAVSTWGGALRYHQGKISSLKRSPALQILLTNTKVPRNTRALVAGVRNRLLKFPEIVAPLLTSIDAISLECERVLGEMGEAPAPEQYLVLEELIDMNQHHLNALGVGHASLDQLCQVTRARGLHSKLTGAGGGGCGITLLKPGLEQPEVEATKQALTSCGFDCLETSIGAPGVSIHSATSLDSRVQQALDGL [H20Q] | with no effect |
| MLSEVLLVSAPGKVILHGEHAVVHGKVALAVSLNLRTFLRLQPHSNGKVDLSLPNIGIKRAWDVARLQSLDTSFLEQGDVTTPTSEQVEKLKEVAGLPDDCAVTERLAVLAFLYLYLSICRKQRALPSLDIVVWSELPPGAGLGSSAAYSVCLAAALLTVCEEIPNPLKDGDCVNRWTKEDLELINKWAFQGERMIHGNPSGVDNAVSTWGGALRYHQGKISSLKRSPALQILLTNTKVPRNTRALVAGVRNRLLKFPEIVAPLLTSIDAISLECERVLGEMGEAPAPEQYLVLEELIDMTQHHLNALGVGHASLDQLCQVTRARGLHSKLTGAGGGGCGITLLKPGLEQPEVEATKQALTSCGFDCLETSIGAPGVSIHSATSLDSRVQQALDGL [N301T] | with no effect |

Variants of: B3
Conditions: with sesd1_human SESTD1, Q86VW0

| Variant | effect of a mutation on the interaction |
| --- | --- |
| MPALLERPKLSNAMARALHRHIMMERERKRQEEEEVDKMMEQKMKEEQERRKKKEMEERMSLEETKEQILKLEEKLLALQEEKHQLFLQLKKVLHEEEKRRRKEQSDLTTLTSAAYQQSLTVHTGTHLLSMQGSPGGHNRPGTLMAADRAKQMFGPQVLTTRHYVGSAAAFAGTPEHGQFQGSPGGAYGTAQPPPHYGPTQPAYSPSQQLRAPSTFPAVQYLSQPQPQPYAVHGHFQPTQTGFLQPGGALSLQKQMEHANQQTGFSDSSSLRPMHPQALHPAPGLLASPQLPVQMQPAGKSGFAATSQPGPRLPFIQHSQNPRFYHK [A215T] | with no effect |

Source: IntAct's records for PubMed 31515488
